{"source": "paper PMC4893494", "about": "“Identification and Characterization of Five BAHD Acyltransferases Involved in Hydroxycinnamoyl Ester Metabolism in Chicory” (Frontiers in Plant Science, 2016)", "proteins": {"B1": {"name": "HQT1 (CiHQT1) (Cichorium intybus) (protein)", "chain": "MTNGAGSEKMKVTVKESVIVKPSKTTPIQRLWNSNIDLLVGRIHLLTIYFYRPNGSSDFFDSGVLKKALSDVLVSFFPMAGRLGKDGDGRVEINCNAEGVWFVEAEADCRIDDFGEITPSPELRRLAPTVDYSGDISSYPLFITQVTRFKCGGVSLGCGVHHTLSDGFSSLHFINTWSDVARGLSVAIPPFNDRTLLRARDPPTPMYDHVEYHPPPSLITPPENHKPPASTTILRLTLDQINDLKSKGKGDGSVYHSTFVIIAAHLWRSACKARGLSDDQPTKLYVATDGRSRLIPPLPSGYLGNVLFTTTPMAKSGEFKSESLADTARRIHNELARMDDQYMRSAIDYLELQSDLSALVRGPTYFASPNLNVNSWTRLPLYESDFGWGRPIFMGPASILYEGTIYIIPSPTDDRSLKLAVCLDSDHMSLFQKYLYDF"}, "B2": {"name": "HQT2 (CiHQT2) (Cichorium intybus) (protein)", "chain": "MGSDQKMMMNINIKKSSIIPPSETIPECPKQLWTSNLDLVVGRIHILTVYFYRPNGSANFFDPNVMKKALADVLVSFYPMAGRLDRDESGRIVINCNGEGVLFVEAESDSTLDDFGEFTPSPEFRRLTPTVDYSGDISSYPLFFAQVTHFKCGGVALGCGVFHTLSDGLSSLHFINTWSDMARGLSVAIPPFIERTLLRAREPPTPTHDHVEYHEPPSMSPTAQKPGSGSSTTMLKLTLDQLNTLKVKAKIESGQTHSTYEILAAHIWRCACKARGLPDDQLTKLYVATDGRSRLSPRLPPGYLGNVVFTATPVAKSGDLTSGSLSNTAKLIHTTLTKMDDDYLRSAIDYLESQKDLSALIRGPTYFASPNLNINAWTRLPVHDADFGYGRPIFMGPAQILYEGTVYVLPSPNNDRSVSLAVCLDANEQSLFEKFLYEL"}, "B3": {"name": "HQT3 (CiHQT3) (Cichorium intybus) (protein)", "chain": "MGSDHKTMKINIKQSSLVQPSKPTIPSNKKLWTSNLDLVVGRIHILTVYFYRPNGCSNFFDPVVMKKALADVLVSFYPFAGRLSRDQNGRLEINCNGEGVLFVEAESDSTLDDFGEFTPSPELRRLTPTVDYSGDISSYPLFFAQVTHFKCGGVGLGCGVFHTLADGLSSIHFINTWSDMTRGLSIAVPPFTDRTLLRARETPTPTFDHVEYHLPPTMNTTSQNPKSSRKPSTNMLKLTIDQLNALKTAAKNDGGNTAYSTYEILAAHLWRCACKARGLPNDQQTKLYVATDGRSRLSPQLPPGYLGNVVFTATPMAKSGDLTTQPLSNSASLIRSTLSKMDNEYLRSAIDYLEVQPDLSALIRGPSYFASPNLNINTWTRLPVHDADFGWGRPVFMGPAVILYEGTIYVLPSPNNDRSMSLAVCLDADEQPLFEKFLYEF"}, "B4": {"name": "HCT1 (CiHCT1) (Cichorium intybus) (protein)", "chain": "MKIEVRESTMVRPAEETPKINLWNSNVDLVVPNFHTPSVYFYRPNGATNFFDPKVMKDALSKALVPFYPMGGRLKRDEDGRIEIDCQGQGVLFVEAESDGMVDDFGDFAPTLELRKLIPAVDYSQGIESYPLLVLQVTYFKCGGVSLGVGMQHHAADGASGLHFINTWSDMARGLDLTIPPFIDRTLLRARDPPQPAFEHVEYQPAPQMKTTSKSTDEQPVPETAVAIFKLTRDQLNALKAKSKENGNTINYSSYEMLSGHVWRCVCKARNLPADQDTKLYIATDGRARLRPSLPPGYFGNVIFTTTPIAVAGELMSNPTWYAAGKIHDGLAKMDNDYLKSALDYLELQPDLKALVRGAHSFRCPNLGITSWARLPIHDADFGWGRPIFMGPGGIAYEGLSFVLPSPINDGSLSIAISLQAEHMKVFSKFLYDI"}}, "assay_in_all_cases": "HPLC-UV of product, Michaelis-Menten", "type_in_all_cases": "biochemical, Cichorium intybus", "key": {"[1]": {"substrate": "O=C(O)[C@]1(O)C[C@@H](O)[C@@H](O)[C@H](O)C1", "details": "acyl acceptor varied, saturating caffeoyl-CoA (800 μM), 50 mM phosphate pH 7.1, room temperature", "from_the_text": "HPLC-UV of product, Michaelis-Menten on HQT1 (CiHQT1)"}, "[2]": {"substrate": "O=C(O)[C@]1(O)C[C@@H](O)[C@@H](O)[C@H](O)C1", "details": "acyl acceptor varied, saturating caffeoyl-CoA (800 μM), 50 mM phosphate pH 7.1, room temperature", "from_the_text": "HPLC-UV of product, Michaelis-Menten on HQT2 (CiHQT2)", "remark": "listed apart in the source"}, "[3]": {"substrate": "O=C(O)[C@]1(O)C[C@@H](O)[C@@H](O)[C@H](O)C1", "details": "acyl acceptor varied, saturating caffeoyl-CoA (800 μM), 50 mM phosphate pH 7.1, room temperature", "from_the_text": "HPLC-UV of product, Michaelis-Menten on HQT3 (CiHQT3)", "remark": "listed apart in the source"}, "[4]": {"substrate": "O=C(O)C1=C[C@@H](O)[C@@H](O)[C@H](O)C1", "details": "acyl acceptor varied, saturating p-coumaroyl-CoA (800 μM), 50 mM phosphate pH 7.1, room temperature", "from_the_text": "HPLC-UV of product, Michaelis-Menten on HCT1 (CiHCT1)"}}, "data": [{"protein": "B1", "values": [{"measurement": "Km", "setting": "[1]", "result": "162 ± 34", "unit": "µM"}, {"measurement": "Vmax", "setting": "[1]", "result": 6.78, "unit": "µmol/min/mg"}, {"measurement": "Vmax/Km", "setting": "[1]", "result": 42000, "unit": "µL/min/mg"}]}, {"protein": "B2", "values": [{"measurement": "Km", "setting": "[2]", "result": "613 ± 53", "unit": "µM"}, {"measurement": "Vmax", "setting": "[2]", "result": 8.04, "unit": "µmol/min/mg"}, {"measurement": "Vmax/Km", "setting": "[2]", "result": 13200, "unit": "µL/min/mg"}]}, {"protein": "B3", "values": [{"measurement": "Km", "setting": "[3]", "result": "318 ± 71", "unit": "µM"}, {"measurement": "Vmax", "setting": "[3]", "result": 9.9, "unit": "µmol/min/mg"}, {"measurement": "Vmax/Km", "setting": "[3]", "result": 31200, "unit": "µL/min/mg"}]}, {"protein": "B4", "values": [{"measurement": "Km", "setting": "[4]", "result": "320 ± 40", "unit": "µM"}, {"measurement": "Vmax", "setting": "[4]", "result": 14.2, "unit": "µmol/min/mg"}, {"measurement": "Vmax/Km", "setting": "[4]", "result": 44400, "unit": "µL/min/mg"}]}]}
